For one substance, stoichiometry N results are on record in article doi:10.1101/2020.04.21.053124.

For this experiment, the target named is MVI Spring bZip (1-914) (UniProt Q9UM54). Briefly: SEC.

Turning to “MVI Spring bZip (1-914) (from UniProt Q9UM54 1-914)”, the stoichiometry N turned out to be 2.

As a reminder, the stoichiometry N is a count of units in the complex or per binding partner.
